Laboratory results taken from IntAct's records for PubMed 35512704.

B1: Mothers against decapentaplegic homolog 4 (Homo sapiens), Q13485 (parent)
chain: MDNMSITNTPTSNDACLSIVHSLMCHRQGGESETFAKRAIESLVKKLKEKKDELDSLITAITTNGAHPSKCVTIQRTLDGRLQVAGRKGFPHVIYARLWRWPDLHKNELKHVKYCQYAFDLKCDSVCVNPYHYERVVSPGIDLSGLTLQSNAPSSMMVKDEYVHDFEGQPSLSTEGHSIQTIQHPPSNRASTETYSTPALLAPSESNATSTANFPNIPVASTSQPASILGGSHSEGLLQIASGPQPGQQQNGFTGQPATYHHNSTTTWTGSRTAPYTPNLPHHQNGHLQHHPPMPPHPGHYWPVHNELAFQPPISNHPAPEYWCSIAYFEMDVQVGETFKVPSSCPIVTVDGYVDPSGGDRFCLGQLSNVHRTEAIERARLHIGKGVQLECKGEGDVWVRCLSDHAVFVQSYYLDREAGRAPGDAVHKIYPSAYIKVFDLRQCHRQMQQQAATAQAAAAAQAAAVAGNIPGPGSVGGIAPAISLSAAAGIGVDDLRRLCILRMSFVKGWGPDYPRQSIKETPCWIEIHLHRALQLLDEVLHTMPIADPQPLD

Variants of: B1
Settings: with tfe2_human TCF3, P15923
tfe2_human TCF3, P15923, sequence (P15923 whole entry): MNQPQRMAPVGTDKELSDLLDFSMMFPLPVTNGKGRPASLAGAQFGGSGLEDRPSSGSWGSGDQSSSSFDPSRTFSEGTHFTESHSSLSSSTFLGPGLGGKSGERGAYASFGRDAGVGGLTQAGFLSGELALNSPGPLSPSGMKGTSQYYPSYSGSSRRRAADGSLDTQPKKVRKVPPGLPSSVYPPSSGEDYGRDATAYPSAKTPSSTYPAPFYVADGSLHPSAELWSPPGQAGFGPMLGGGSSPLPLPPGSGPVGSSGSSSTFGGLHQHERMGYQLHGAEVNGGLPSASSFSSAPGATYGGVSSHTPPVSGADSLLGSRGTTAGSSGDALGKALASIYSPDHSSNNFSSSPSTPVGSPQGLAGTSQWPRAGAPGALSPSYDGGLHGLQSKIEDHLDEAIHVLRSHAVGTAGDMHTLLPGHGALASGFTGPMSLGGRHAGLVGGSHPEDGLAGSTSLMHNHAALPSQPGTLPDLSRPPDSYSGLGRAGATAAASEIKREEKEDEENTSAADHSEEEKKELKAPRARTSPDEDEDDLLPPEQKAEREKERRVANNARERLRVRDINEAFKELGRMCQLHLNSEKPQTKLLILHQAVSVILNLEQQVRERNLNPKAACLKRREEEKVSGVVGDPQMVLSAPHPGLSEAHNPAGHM

| effect of a mutation on the interaction | Variant |
| --- | --- |
| with no effect | G386D |

Variants of: B1
Settings: with tead1_human TEAD1, P28347

| effect of a mutation on the interaction | Variant |
| --- | --- |
| with no effect | G386D |

Variants of: B1
Settings: with tead2_human TEAD2, Q15562

| effect of a mutation on the interaction | Variant |
| --- | --- |
| with no effect | G386D |

Variants of: B1
Settings: with tead3_human TEAD3, Q99594

| effect of a mutation on the interaction | Variant |
| --- | --- |
| with no effect | G386D |

Variants of: B1
Settings: with tet2_human TET2, Q6N021

| effect of a mutation on the interaction | Variant |
| --- | --- |
| with no effect | G386D |

Variants of: B1
Settings: with tgfr2_human TGFBR2, P37173
tgfr2_human TGFBR2, P37173, sequence (P37173 whole entry): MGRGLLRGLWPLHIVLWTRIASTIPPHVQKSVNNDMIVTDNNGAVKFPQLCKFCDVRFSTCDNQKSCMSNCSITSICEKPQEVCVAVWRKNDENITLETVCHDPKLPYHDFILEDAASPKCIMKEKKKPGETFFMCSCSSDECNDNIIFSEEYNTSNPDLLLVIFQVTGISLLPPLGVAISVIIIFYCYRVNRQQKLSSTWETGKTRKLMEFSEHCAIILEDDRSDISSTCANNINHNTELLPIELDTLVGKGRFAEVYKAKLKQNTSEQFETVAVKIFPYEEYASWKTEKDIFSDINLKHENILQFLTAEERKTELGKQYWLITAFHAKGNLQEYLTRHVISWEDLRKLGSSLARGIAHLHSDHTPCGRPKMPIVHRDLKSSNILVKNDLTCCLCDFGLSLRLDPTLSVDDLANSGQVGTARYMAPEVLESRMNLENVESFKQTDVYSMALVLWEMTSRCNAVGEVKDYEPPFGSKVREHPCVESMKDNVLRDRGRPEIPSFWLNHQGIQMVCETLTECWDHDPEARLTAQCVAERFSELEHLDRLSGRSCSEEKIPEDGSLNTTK

| effect of a mutation on the interaction | Variant |
| --- | --- |
| with no effect | G386D |

Variants of: B1
Settings: with tnr14_human TNFRSF14, Q92956

| effect of a mutation on the interaction | Variant |
| --- | --- |
| with no effect | G386D |

Variants of: B1
Settings: with tpx2_human TPX2, Q9ULW0

| effect of a mutation on the interaction | Variant |
| --- | --- |
| with no effect | G386D |

Variants of: B1
Settings: with trrap_human TRRAP

| effect of a mutation on the interaction | Variant |
| --- | --- |
| with no effect | G386D |

Variants of: B1
Settings: with tsc2_human TSC2, P49815
tsc2_human TSC2, P49815, sequence (P49815 whole entry): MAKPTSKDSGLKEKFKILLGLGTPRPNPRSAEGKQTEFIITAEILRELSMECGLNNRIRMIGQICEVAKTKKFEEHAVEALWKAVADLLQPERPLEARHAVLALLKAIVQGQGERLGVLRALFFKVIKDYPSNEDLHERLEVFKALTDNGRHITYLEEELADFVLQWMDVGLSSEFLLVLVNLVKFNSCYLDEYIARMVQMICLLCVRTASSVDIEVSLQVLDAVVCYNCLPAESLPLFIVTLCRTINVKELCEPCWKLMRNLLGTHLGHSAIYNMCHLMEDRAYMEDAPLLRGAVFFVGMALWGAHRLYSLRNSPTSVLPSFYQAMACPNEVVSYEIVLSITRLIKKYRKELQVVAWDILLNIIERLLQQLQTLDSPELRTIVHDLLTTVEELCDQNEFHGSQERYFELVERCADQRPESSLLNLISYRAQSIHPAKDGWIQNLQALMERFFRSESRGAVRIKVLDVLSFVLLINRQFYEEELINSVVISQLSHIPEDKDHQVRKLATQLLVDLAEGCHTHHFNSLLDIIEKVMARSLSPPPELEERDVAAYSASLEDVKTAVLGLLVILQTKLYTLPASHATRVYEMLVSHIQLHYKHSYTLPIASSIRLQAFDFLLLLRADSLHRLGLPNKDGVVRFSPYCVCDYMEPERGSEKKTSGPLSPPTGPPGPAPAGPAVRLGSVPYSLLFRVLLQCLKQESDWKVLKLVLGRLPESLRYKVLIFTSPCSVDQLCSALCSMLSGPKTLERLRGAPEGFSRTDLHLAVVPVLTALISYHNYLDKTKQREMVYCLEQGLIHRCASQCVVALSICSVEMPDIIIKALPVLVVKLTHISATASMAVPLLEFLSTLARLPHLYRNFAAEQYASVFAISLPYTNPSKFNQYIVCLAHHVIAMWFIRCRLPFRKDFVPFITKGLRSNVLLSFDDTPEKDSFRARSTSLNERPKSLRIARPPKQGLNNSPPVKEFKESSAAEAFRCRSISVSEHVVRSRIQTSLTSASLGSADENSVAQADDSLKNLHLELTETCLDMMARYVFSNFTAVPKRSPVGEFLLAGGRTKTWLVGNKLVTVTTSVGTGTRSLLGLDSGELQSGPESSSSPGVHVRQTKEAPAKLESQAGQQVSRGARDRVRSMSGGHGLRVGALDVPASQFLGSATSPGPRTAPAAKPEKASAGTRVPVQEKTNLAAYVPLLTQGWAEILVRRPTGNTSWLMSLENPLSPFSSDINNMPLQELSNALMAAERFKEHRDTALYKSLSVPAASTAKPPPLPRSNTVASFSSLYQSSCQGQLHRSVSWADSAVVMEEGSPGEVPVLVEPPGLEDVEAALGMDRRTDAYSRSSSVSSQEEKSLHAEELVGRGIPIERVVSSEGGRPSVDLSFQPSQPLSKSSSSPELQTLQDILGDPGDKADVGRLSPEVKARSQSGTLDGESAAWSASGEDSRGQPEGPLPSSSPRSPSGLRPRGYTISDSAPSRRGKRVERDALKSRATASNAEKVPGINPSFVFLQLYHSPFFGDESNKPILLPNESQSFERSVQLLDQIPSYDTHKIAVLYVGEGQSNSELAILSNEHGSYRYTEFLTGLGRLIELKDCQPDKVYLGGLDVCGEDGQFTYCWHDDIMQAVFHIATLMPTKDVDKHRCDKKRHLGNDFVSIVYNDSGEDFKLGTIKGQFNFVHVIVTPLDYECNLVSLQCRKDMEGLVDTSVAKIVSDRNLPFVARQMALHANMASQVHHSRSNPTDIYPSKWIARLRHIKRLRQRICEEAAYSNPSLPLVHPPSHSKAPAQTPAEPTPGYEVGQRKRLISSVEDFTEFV

| effect of a mutation on the interaction | Variant |
| --- | --- |
| with no effect | G386D |

Variants of: B1
Settings: with tshr_human TSHR

| effect of a mutation on the interaction | Variant |
| --- | --- |
| with no effect | G386D |

Variants of: B1
Settings: with vhl_human VHL

| effect of a mutation on the interaction | Variant |
| --- | --- |
| with no effect | G386D |

Variants of: B1
Settings: with wt1_human WT1, P19544

| effect of a mutation on the interaction | Variant |
| --- | --- |
| with no effect | G386D |

Variants of: B1
Settings: with wwtr1_human WWTR1, Q9GZV5

| effect of a mutation on the interaction | Variant |
| --- | --- |
| with no effect | G386D |

Variants of: B1
Settings: with xirp2_human XIRP2, A4UGR9

| effect of a mutation on the interaction | Variant |
| --- | --- |
| with no effect | G386D |

Variants of: B1
Settings: with xpo1_human XPO1, O14980

| effect of a mutation on the interaction | Variant |
| --- | --- |
| with no effect | G386D |

Variants of: B1
Settings: with 1433e_human YWHAE

| effect of a mutation on the interaction | Variant |
| --- | --- |
| with no effect | G386D |

Variants of: B1
Settings: with 1433z_human YWHAZ

| effect of a mutation on the interaction | Variant |
| --- | --- |
| with no effect | G386D |

Variants of: B1
Settings: with arc1a_human ARPC1A

| effect of a mutation on the interaction | Variant |
| --- | --- |
| increasing interaction strength | G386D |

Variants of: B1
Settings: with axin2_human AXIN2, Q9Y2T1
axin2_human AXIN2, Q9Y2T1, sequence (Q9Y2T1 whole entry): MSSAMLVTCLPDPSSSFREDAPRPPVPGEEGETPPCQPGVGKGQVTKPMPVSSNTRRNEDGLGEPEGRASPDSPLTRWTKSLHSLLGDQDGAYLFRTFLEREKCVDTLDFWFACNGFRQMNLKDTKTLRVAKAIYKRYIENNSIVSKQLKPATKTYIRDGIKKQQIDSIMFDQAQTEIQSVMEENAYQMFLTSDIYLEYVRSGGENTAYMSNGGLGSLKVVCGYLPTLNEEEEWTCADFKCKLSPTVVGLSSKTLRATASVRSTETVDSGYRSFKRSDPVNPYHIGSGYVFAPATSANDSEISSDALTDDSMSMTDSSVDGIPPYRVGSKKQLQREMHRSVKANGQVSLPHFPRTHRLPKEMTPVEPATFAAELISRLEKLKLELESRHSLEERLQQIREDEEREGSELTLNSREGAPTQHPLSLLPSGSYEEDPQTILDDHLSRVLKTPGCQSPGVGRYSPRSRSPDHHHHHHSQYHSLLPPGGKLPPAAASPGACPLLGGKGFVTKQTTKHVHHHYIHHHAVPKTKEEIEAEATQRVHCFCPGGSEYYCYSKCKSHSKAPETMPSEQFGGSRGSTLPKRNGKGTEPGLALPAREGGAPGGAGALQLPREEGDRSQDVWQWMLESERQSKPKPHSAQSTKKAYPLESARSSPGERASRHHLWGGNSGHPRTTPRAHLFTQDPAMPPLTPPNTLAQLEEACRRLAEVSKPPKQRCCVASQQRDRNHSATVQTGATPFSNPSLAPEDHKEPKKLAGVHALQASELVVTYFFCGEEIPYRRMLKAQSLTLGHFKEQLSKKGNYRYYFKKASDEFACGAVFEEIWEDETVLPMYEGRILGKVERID

| effect of a mutation on the interaction | Variant |
| --- | --- |
| increasing interaction strength | G386D |

Variants of: B1
Settings: with btg1_human BTG1, P62324
btg1_human BTG1, P62324, sequence (P62324 whole entry): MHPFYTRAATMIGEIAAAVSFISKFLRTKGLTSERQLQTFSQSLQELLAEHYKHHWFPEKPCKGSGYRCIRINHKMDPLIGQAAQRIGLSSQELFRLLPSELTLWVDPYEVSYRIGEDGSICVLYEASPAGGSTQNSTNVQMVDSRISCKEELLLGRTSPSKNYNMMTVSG

| effect of a mutation on the interaction | Variant |
| --- | --- |
| increasing interaction strength | G386D |

Variants of: B1
Settings: with erbb3_human ERBB3, P21860

| effect of a mutation on the interaction | Variant |
| --- | --- |
| increasing interaction strength | G386D |

Variants of: B1
Settings: with gna13_human GNA13, Q14344

| effect of a mutation on the interaction | Variant |
| --- | --- |
| increasing interaction strength | G386D |

Variants of: B1
Settings: with gsk3b_human GSK3B

| effect of a mutation on the interaction | Variant |
| --- | --- |
| increasing interaction strength | G386D |

Variants of: B1
Settings: with hdac1_human HDAC1, Q13547

| effect of a mutation on the interaction | Variant |
| --- | --- |
| increasing interaction strength | G386D |

Variants of: B1
Settings: with hnf1a_human HNF1A

| effect of a mutation on the interaction | Variant |
| --- | --- |
| increasing interaction strength | G386D |

Variants of: B1
Settings: with notc2_human NOTCH2, Q04721

| effect of a mutation on the interaction | Variant |
| --- | --- |
| causing an interaction | G386D |

Variants of: B1
Settings: with ntrk2_human NTRK2, Q16620

| effect of a mutation on the interaction | Variant |
| --- | --- |
| causing an interaction | G386D |

Variants of: B1
Settings: with dpod1_human POLD1, P28340

| effect of a mutation on the interaction | Variant |
| --- | --- |
| increasing interaction strength | G386D |

Variants of: B1
Settings: with socs1_human SOCS1, O15524

| effect of a mutation on the interaction | Variant |
| --- | --- |
| increasing interaction strength | G386D |

Variants of: B1
Settings: with tshr_human TSHR
Remark: another data set of the same source

| effect of a mutation on the interaction | Variant |
| --- | --- |
| increasing interaction strength | G386D |

Variants of: B1
Settings: with smad2_human SMAD2, Q15796
smad2_human SMAD2, Q15796, sequence (Q15796 whole entry): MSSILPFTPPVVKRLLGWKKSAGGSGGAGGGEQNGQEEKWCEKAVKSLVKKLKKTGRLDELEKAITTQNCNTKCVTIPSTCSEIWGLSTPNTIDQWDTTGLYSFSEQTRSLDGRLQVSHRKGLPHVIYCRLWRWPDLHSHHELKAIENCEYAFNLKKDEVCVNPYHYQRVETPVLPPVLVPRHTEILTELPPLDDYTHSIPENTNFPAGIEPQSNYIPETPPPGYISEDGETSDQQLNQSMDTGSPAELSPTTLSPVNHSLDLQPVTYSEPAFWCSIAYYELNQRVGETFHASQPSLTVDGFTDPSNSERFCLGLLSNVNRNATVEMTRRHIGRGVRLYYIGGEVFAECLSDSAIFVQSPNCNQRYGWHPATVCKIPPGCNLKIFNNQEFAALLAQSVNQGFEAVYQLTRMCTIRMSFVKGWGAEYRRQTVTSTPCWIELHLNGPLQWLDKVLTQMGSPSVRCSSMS

| effect of a mutation on the interaction | Variant |
| --- | --- |
| disrupting interaction strength | G386D |

Variants of: B1
Settings: with smad3_human SMAD3, P84022

| effect of a mutation on the interaction | Variant |
| --- | --- |
| decreasing interaction strength | G386D |

Variants of: B1
Settings: with cdk6_human CDK6, Q00534

| effect of a mutation on the interaction | Variant |
| --- | --- |
| decreasing interaction strength | G386D |

Variants of: B1
Settings: with ccnd1_human CCND1, P24385

| effect of a mutation on the interaction | Variant |
| --- | --- |
| decreasing interaction strength | G386D |

Variants of: B1
Settings: with akt1_human AKT1, P31749
akt1_human AKT1, P31749, sequence (P31749 whole entry): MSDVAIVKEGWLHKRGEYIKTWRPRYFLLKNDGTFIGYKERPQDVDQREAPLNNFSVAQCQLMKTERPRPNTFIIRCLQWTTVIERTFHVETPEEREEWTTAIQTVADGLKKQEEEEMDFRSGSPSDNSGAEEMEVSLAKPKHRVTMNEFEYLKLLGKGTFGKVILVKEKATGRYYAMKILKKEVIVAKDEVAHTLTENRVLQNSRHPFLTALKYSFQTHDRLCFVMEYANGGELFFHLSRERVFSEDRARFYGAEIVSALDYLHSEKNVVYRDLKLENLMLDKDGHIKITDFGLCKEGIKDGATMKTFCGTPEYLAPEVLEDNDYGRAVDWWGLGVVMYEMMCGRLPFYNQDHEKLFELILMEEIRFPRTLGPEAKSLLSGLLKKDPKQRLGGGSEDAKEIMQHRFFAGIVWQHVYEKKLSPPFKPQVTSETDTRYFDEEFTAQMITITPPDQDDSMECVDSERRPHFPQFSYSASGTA

| effect of a mutation on the interaction | Variant |
| --- | --- |
| decreasing interaction strength | G386D |

Variants of: B1
Settings: with pk3cb_human PIK3CB

| effect of a mutation on the interaction | Variant |
| --- | --- |
| decreasing interaction strength | G386D |

Variants of: B1
Settings: with jak1_human JAK1, P23458

| effect of a mutation on the interaction | Variant |
| --- | --- |
| decreasing interaction strength | G386D |

Variants of: B1
Settings: with jak3_human JAK3, P52333

| effect of a mutation on the interaction | Variant |
| --- | --- |
| decreasing interaction strength | G386D |

Variants of: B1
Settings: with baba2_human BABAM2, Q9NXR7

| effect of a mutation on the interaction | Variant |
| --- | --- |
| increasing interaction strength | G386D |
